How the values were obtained:
Test in all cases: holdup assay
Parameters in all cases: key: below the threshold = too weak to quantify, mostly under pKd 3.1 to 4
GRID2IP_2, A4D2P6 = target: GRID2IP_2, A4D2P6
FRMPD2_2, Q68DX3 = target: FRMPD2_2, Q68DX3
SNTG2, Q9NY99 = target: T1, SNTG2, Q9NY99
T1 sequence (Q9NY99 68-166, limits assumed, looked up): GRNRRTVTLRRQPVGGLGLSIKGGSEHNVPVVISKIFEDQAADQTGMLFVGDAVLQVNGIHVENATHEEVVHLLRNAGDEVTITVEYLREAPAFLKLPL

NHERF3_4, Q5T2W1 = target: T2, NHERF3_4, Q5T2W1
T2 sequence (Q5T2W1 373-468, limits assumed, looked up): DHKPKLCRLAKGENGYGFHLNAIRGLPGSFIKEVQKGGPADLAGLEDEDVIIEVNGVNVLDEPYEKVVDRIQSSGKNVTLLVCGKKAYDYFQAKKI

APBA1_2, Q02410 = target: T3, APBA1_2, Q02410
T3 sequence (Q02410 742-832, limits assumed, looked up): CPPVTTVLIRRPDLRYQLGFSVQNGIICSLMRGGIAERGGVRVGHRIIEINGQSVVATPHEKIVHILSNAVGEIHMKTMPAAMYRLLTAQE

SCRIB_3, Q14160 = target: SCRIB_3, Q14160
DLG4_2, P78352 = target: DLG4_2, P78352
GRIP1_4, Q9Y3R0 = target: T4, GRIP1_4, Q9Y3R0
T4 sequence (Q9Y3R0 467-571, limits assumed, looked up): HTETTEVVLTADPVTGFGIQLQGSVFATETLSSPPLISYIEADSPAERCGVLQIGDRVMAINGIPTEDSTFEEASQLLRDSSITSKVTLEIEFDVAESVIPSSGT

NHERF4_2, Q86UT5 = target: NHERF4_2, Q86UT5
AHNAK1, Q09666 = target: AHNAK1, Q09666
MPDZ_12, O75970 = target: T5, MPDZ_12, O75970
T5 sequence (O75970 1857-1958, limits assumed, looked up): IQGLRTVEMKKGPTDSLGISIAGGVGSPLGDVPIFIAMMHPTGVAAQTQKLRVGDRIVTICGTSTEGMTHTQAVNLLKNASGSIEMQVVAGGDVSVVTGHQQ

LIMK2, P53671 = target: LIMK2, P53671
FRMPD2_1, Q68DX3 = target: FRMPD2_1, Q68DX3
DLG1_2, Q12959 = target: DLG1_2, Q12959
NOS1, P29475 = target: NOS1, P29475
DLG3_3, Q92796 = target: T6, DLG3_3, Q92796
T6 sequence (Q92796 374-475, limits assumed, looked up): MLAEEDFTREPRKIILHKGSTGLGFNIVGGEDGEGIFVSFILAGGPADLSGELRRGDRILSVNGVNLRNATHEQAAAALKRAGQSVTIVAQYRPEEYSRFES

MAGI2_4, Q86UL8 = target: MAGI2_4, Q86UL8
PTPN13_1, Q12923 = target: T7, PTPN13_1, Q12923
T7 sequence (Q12923 1088-1188, limits assumed, looked up): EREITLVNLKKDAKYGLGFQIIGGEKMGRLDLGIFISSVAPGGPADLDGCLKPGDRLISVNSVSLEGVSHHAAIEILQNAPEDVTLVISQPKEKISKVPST

LNX1_3, Q8TBB1 = target: LNX1_3, Q8TBB1
MAGI2_6, Q86UL8 = target: MAGI2_6, Q86UL8
FRMPD4, Q14CM0 = target: FRMPD4, Q14CM0
PDZD2_2, O15018 = target: T8, PDZD2_2, O15018
T8 sequence (O15018 329-429, limits assumed, looked up): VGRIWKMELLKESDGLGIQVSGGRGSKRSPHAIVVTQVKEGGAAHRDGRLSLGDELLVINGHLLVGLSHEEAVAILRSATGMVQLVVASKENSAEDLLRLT

MPP2, Q14168 = target: T9, MPP2, Q14168
T9 sequence (Q14168 180-250, limits assumed, looked up): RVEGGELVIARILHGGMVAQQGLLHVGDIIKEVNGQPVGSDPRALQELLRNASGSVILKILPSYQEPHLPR

GRIP2_7, Q9C0E4 = target: GRIP2_7, Q9C0E4
LIN7B, Q9HAP6 = target: T10, LIN7B, Q9HAP6
T10 sequence (Q9HAP6 88-185, limits assumed, looked up): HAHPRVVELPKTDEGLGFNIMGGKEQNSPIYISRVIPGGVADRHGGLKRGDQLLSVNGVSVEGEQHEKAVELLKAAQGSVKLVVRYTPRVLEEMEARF

GRIP1_7, Q9Y3R0 = target: T11, GRIP1_7, Q9Y3R0
T11 sequence (Q9Y3R0 999-1096, limits assumed, looked up): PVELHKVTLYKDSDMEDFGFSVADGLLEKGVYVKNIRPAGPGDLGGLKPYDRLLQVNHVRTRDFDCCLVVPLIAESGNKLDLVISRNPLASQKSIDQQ

PARD3_3, Q8TEW0 = target: PARD3_3, Q8TEW0
[1] = plain residues with an end cap or a label only (N-terminal biotin on a linker: ado-ado)
[2] = plain residues with an end cap or a label only (N-terminal biotin on a linker: ahx)

Chain of FRMPD2_2, Q68DX3 (Q68DX3 944-1038): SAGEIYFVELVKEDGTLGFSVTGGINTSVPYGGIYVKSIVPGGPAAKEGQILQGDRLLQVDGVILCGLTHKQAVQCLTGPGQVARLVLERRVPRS
Chain of FRMPD4, Q14CM0 (Q14CM0 67-160): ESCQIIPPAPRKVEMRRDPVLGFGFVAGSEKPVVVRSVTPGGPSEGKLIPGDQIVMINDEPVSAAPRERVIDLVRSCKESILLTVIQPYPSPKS
Chain of DLG4_2, P78352 (P78352 155-259): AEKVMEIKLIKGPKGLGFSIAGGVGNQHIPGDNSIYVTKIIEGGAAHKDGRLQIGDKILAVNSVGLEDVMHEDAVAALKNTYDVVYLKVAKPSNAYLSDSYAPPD
Chain of LIMK2, P53671 (P53671 143-248): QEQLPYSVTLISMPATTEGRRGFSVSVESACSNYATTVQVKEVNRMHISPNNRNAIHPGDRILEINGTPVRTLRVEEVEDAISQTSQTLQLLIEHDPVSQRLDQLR
Chain of FRMPD2_1, Q68DX3 (Q68DX3 770-861): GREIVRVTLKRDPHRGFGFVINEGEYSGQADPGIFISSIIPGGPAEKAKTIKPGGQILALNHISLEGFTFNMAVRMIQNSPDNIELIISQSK
Chain of NOS1, P29475 (P29475 9-101): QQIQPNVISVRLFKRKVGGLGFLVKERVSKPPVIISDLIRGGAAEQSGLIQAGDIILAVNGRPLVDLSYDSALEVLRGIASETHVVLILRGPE
Chain of MAGI2_4, Q86UL8 (Q86UL8 772-865): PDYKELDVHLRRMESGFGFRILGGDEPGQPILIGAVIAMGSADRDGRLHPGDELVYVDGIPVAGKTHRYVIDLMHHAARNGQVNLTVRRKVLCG
Chain of LNX1_3, Q8TBB1 (Q8TBB1 500-596): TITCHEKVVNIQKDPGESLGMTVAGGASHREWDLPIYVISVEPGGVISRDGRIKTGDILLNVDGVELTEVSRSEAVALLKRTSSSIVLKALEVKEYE
Chain of GRID2IP_2, A4D2P6 (A4D2P6 272-370): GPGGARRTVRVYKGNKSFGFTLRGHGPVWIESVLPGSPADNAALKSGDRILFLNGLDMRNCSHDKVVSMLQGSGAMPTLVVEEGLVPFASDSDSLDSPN
Chain of NHERF4_2, Q86UT5 (Q86UT5 220-308): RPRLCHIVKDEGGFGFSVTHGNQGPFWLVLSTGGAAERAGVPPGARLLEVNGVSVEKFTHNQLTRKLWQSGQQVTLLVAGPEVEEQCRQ
Chain of GRIP2_7, Q9C0E4 (Q9C0E4 934-1023): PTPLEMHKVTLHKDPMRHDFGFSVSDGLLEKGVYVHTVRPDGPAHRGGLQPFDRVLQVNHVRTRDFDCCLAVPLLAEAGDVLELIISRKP
Chain of DLG1_2, Q12959 (Q12959 314-412): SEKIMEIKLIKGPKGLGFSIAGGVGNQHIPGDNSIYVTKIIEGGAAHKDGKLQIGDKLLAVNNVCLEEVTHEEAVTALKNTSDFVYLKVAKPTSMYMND
Chain of MAGI2_6, Q86UL8 (Q86UL8 1141-1229): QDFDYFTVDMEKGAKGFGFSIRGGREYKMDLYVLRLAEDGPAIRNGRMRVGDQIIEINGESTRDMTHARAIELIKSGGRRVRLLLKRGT
Chain of PARD3_3, Q8TEW0 (Q8TEW0 582-685): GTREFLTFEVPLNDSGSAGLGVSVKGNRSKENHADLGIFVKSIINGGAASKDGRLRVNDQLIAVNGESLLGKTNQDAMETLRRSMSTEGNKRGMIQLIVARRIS
Chain of SCRIB_3, Q14160 (Q14160 999-1103): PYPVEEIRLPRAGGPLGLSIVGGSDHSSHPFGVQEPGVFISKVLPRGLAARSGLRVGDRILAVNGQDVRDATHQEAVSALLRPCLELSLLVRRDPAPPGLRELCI
Chain of AHNAK1, Q09666 (Q09666 4-100): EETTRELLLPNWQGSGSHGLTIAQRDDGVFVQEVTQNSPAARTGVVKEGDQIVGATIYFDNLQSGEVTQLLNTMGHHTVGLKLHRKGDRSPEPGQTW

PLSPEQPTKL [TRIM50, Q86XT4]
pKd (GRID2IP_2, A4D2P6; [1]): below the threshold
pKd (FRMPD2_2, Q68DX3; [1]): below the threshold
pKd (SNTG2, Q9NY99; [1]): below the threshold
pKd (NHERF3_4, Q5T2W1; [1]): 3.7
pKd (APBA1_2, Q02410; [1]): 4.06
pKd (SCRIB_3, Q14160; [1]): below the threshold
pKd (DLG4_2, P78352; [1]): below the threshold
pKd (GRIP1_4, Q9Y3R0; [1]): below the threshold
pKd (NHERF4_2, Q86UT5; [1]): below the threshold
pKd (AHNAK1, Q09666; [1]): below the threshold
pKd (MPDZ_12, O75970; [1]): below the threshold
pKd (LIMK2, P53671; [1]): below the threshold
pKd (FRMPD2_1, Q68DX3; [1]): below the threshold
pKd (DLG1_2, Q12959; [1]): below the threshold
pKd (NOS1, P29475; [1]): below the threshold
pKd (DLG3_3, Q92796; [1]): below the threshold
pKd (MAGI2_4, Q86UL8; [1]): below the threshold
pKd (PTPN13_1, Q12923; [1]): below the threshold
pKd (LNX1_3, Q8TBB1; [1]): below the threshold
pKd (MAGI2_6, Q86UL8; [1]): below the threshold
pKd (FRMPD4, Q14CM0; [1]): 3.61
pKd (PDZD2_2, O15018; [1]): below the threshold
pKd (MPP2, Q14168; [1]): below the threshold
pKd (GRIP2_7, Q9C0E4; [1]): below the threshold
pKd (LIN7B, Q9HAP6; [1]): below the threshold
pKd (GRIP1_7, Q9Y3R0; [1]): below the threshold
pKd (PARD3_3, Q8TEW0; [1]): below the threshold

RRRKRKRTYL [HPV49-L2, P36762]
pKd (GRID2IP_2, A4D2P6; [2]): 5.11
pKd (FRMPD2_2, Q68DX3; [2]): below the threshold
pKd (SNTG2, Q9NY99; [2]): 3.57
pKd (NHERF3_4, Q5T2W1; [2]): 4
pKd (APBA1_2, Q02410; [2]): 3.98
pKd (SCRIB_3, Q14160; [2]): 3.75
pKd (DLG4_2, P78352; [2]): below the threshold
pKd (GRIP1_4, Q9Y3R0; [2]): 4.04
pKd (NHERF4_2, Q86UT5; [2]): below the threshold
pKd (AHNAK1, Q09666; [2]): 3.56
pKd (MPDZ_12, O75970; [2]): below the threshold
pKd (LIMK2, P53671; [2]): below the threshold
pKd (FRMPD2_1, Q68DX3; [2]): 3.78
pKd (DLG1_2, Q12959; [2]): 3.82
pKd (NOS1, P29475; [2]): 3.71
pKd (DLG3_3, Q92796; [2]): 4.28
pKd (MAGI2_4, Q86UL8; [2]): below the threshold
pKd (PTPN13_1, Q12923; [2]): below the threshold
pKd (LNX1_3, Q8TBB1; [2]): below the threshold
pKd (MAGI2_6, Q86UL8; [2]): below the threshold
pKd (FRMPD4, Q14CM0; [2]): 3.53
pKd (PDZD2_2, O15018; [2]): 3.8
pKd (MPP2, Q14168; [2]): 3.74
pKd (GRIP2_7, Q9C0E4; [2]): 3.68
pKd (LIN7B, Q9HAP6; [2]): below the threshold
pKd (GRIP1_7, Q9Y3R0; [2]): 3.54
pKd (PARD3_3, Q8TEW0; [2]): below the threshold

NRKREIFSNF [NHERF2, Q15599]
pKd (GRID2IP_2, A4D2P6; [2]): below the threshold
pKd (FRMPD2_2, Q68DX3; [2]): below the threshold
pKd (SNTG2, Q9NY99; [2]): below the threshold
pKd (NHERF3_4, Q5T2W1; [2]): below the threshold
pKd (APBA1_2, Q02410; [2]): below the threshold
pKd (SCRIB_3, Q14160; [2]): below the threshold
pKd (DLG4_2, P78352; [2]): below the threshold
pKd (GRIP1_4, Q9Y3R0; [2]): below the threshold
pKd (NHERF4_2, Q86UT5; [2]): below the threshold
pKd (AHNAK1, Q09666; [2]): below the threshold
pKd (MPDZ_12, O75970; [2]): below the threshold
pKd (LIMK2, P53671; [2]): below the threshold
pKd (FRMPD2_1, Q68DX3; [2]): below the threshold
pKd (DLG1_2, Q12959; [2]): below the threshold
pKd (NOS1, P29475; [2]): below the threshold
pKd (DLG3_3, Q92796; [2]): below the threshold
pKd (MAGI2_4, Q86UL8; [2]): below the threshold
pKd (PTPN13_1, Q12923; [2]): below the threshold
pKd (LNX1_3, Q8TBB1; [2]): below the threshold
pKd (MAGI2_6, Q86UL8; [2]): 3.55
pKd (FRMPD4, Q14CM0; [2]): below the threshold
pKd (PDZD2_2, O15018; [2]): below the threshold
pKd (MPP2, Q14168; [2]): below the threshold
pKd (GRIP2_7, Q9C0E4; [2]): below the threshold
pKd (LIN7B, Q9HAP6; [2]): below the threshold
pKd (GRIP1_7, Q9Y3R0; [2]): below the threshold
pKd (PARD3_3, Q8TEW0; [2]): below the threshold

HNAFLSVTTV [PDZRN4, Q6ZMN7]
pKd (GRID2IP_2, A4D2P6; [2]): below the threshold
pKd (FRMPD2_2, Q68DX3; [2]): below the threshold
pKd (SNTG2, Q9NY99; [2]): 3.6
pKd (NHERF3_4, Q5T2W1; [2]): 3.61
pKd (APBA1_2, Q02410; [2]): below the threshold
pKd (SCRIB_3, Q14160; [2]): below the threshold
pKd (DLG4_2, P78352; [2]): 3.51
pKd (GRIP1_4, Q9Y3R0; [2]): below the threshold
pKd (NHERF4_2, Q86UT5; [2]): below the threshold
pKd (AHNAK1, Q09666; [2]): 3.7
pKd (MPDZ_12, O75970; [2]): below the threshold
pKd (LIMK2, P53671; [2]): below the threshold
pKd (FRMPD2_1, Q68DX3; [2]): below the threshold
pKd (DLG1_2, Q12959; [2]): 3.52
pKd (NOS1, P29475; [2]): below the threshold
pKd (DLG3_3, Q92796; [2]): below the threshold
pKd (MAGI2_4, Q86UL8; [2]): 3.49
pKd (PTPN13_1, Q12923; [2]): below the threshold
pKd (LNX1_3, Q8TBB1; [2]): below the threshold
pKd (MAGI2_6, Q86UL8; [2]): below the threshold
pKd (FRMPD4, Q14CM0; [2]): 3.5
pKd (PDZD2_2, O15018; [2]): 3.49
pKd (MPP2, Q14168; [2]): below the threshold
pKd (GRIP2_7, Q9C0E4; [2]): below the threshold
pKd (LIN7B, Q9HAP6; [2]): below the threshold
pKd (GRIP1_7, Q9Y3R0; [2]): below the threshold
pKd (PARD3_3, Q8TEW0; [2]): 3.81

Reference: publication PMC9482650, “Quantitative fragmentomics allow affinity mapping of interactomes” (Nature Communications, 2022)
